# Residue numbers refer to the chain shown, from its start.
# B1: B10v5x425 (bispecific antibody, V domains shown)
# VL (c-MET arm): EPVLTQPPSVSVAPGETATIPCGGDSLGSKIVHWYQQRPGQAPLLVVYDDAARPSGIPERFSGSKSGTTATLTISSVEAGDEADYFCQVYDYHSDVEVFGGGTKLTVLGQPKAA
# VH (c-MET arm): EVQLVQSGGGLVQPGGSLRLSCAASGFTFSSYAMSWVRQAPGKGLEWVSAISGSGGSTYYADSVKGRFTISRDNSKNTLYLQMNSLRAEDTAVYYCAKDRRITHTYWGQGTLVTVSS
# VL (EGFR arm): DIQMTQSPSSLSASVGDRVTITCSASSSVTYMYWYQQKPGKAPKLLIYDTSNLASGVPSRFSGSGSGTDYTFTISSLQPEDIATYYCQQWSSHIFTFGQGTKVEIKR
# VH (EGFR arm): QVQLVQSGAEVKKPGASVKVSCKASGYTFTSHWMHWVRQAPGQGLEWIGEFNPSNGRTNYNEKFKSKATMTVDTSTNTAYMELSSLRSEDTAVYYCASRDYDYDGRYFDYWGQGTLVTVSS
# notes: c-MET x EGFR SEED bispecific
# B2: CS06x225-L (bispecific antibody, V domains shown)
# VL (c-MET arm): QLVLTQSPSVSVAPGKTARITCGGNNIRNVGVHWYQKKPGQAPILVVYDDDDRPSGVPERFSGSNSGNTATLTISRVEAGDEADYYCQVWDSATDQRVFGGGTKLTVLGQPKAG
# VH (c-MET arm): QVQLQQSGAEVKKPGSSAKVSCKASGGTFSSNAISWVRQAPGQGLEWMGGIIPIFGTAIYAQKFQGRVTITADESTSTAYMELSSLRSEDTAVYYCARDQRGYYYYYYYGMDVWGQGTTVTVSS
# VL (EGFR arm): DIQMTQSPSSLSASVGDRVTITCRASQSIGTNIHWYQQKPGKAPKLLIKYASESISGVPSRFSGSGYGTDFTLTISSLQPEDVATYYCQQNNNWPTTFGQGTKVEIK
# VH (EGFR arm): EVQLVQSGAEVKKPGASVKVSCKASGFSLTNYGVHWMRQAPGQGLEWIGVIWRGGNTDYNTPFTSRVTITSDKSTSTAYMELSSLRSEDTAVYYCARALTYYDYEFAYWGQGTLVTVSS
# notes: c-MET x EGFR SEED bispecific
# B3: CS06x225-M (bispecific antibody, V domains shown)
# VL (c-MET arm): B2 VL (c-MET arm)
# VH (c-MET arm): B2 VH (c-MET arm)
# VL (EGFR arm): B2 VL (EGFR arm) with N92Y
# VH (EGFR arm): B2 VH (EGFR arm) with R53S
# notes: c-MET x EGFR SEED bispecific
# B4: CS06x425 (bispecific antibody, V domains shown)
# VL (c-MET arm): B2 VL (c-MET arm)
# VH (c-MET arm): B2 VH (c-MET arm)
# VL (EGFR arm): B1 VL (EGFR arm)
# VH (EGFR arm): B1 VH (EGFR arm)
# notes: c-MET x EGFR SEED bispecific
# B5: B10v5x225-M (bispecific c-MET x EGFR SEEDbody) (bispecific antibody, V domains shown)
# VH 1: not shown
# VL 1: B1 VL (c-MET arm)
# VH 2: B2 VH (EGFR arm) with R53S
# VL 2: B2 VL (EGFR arm) with N92Y
# notes: SEEDbody format (IgG1 hinge-CH2-SEED CH3)
# B6: B10x225-L (bispecific antibody, V domains shown)
# VL (c-MET arm): QSVLTQPPSTSGTPGQRVTISCFGSSSNVGVNTVNWYRQLPGTAPKLLIYDNNLRPSGVPERFSGSKSGTSASLAITGLQAEDEGDYYCQSYDSSLSDVVFGGGTKLTVLGQPKAG
# VH (c-MET arm): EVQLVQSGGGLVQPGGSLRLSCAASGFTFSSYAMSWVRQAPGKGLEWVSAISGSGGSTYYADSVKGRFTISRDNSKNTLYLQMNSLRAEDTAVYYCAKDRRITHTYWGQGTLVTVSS
# VL (EGFR arm): B2 VL (EGFR arm)
# VH (EGFR arm): B2 VH (EGFR arm)
# notes: c-MET x EGFR SEED bispecific; also called 225L, B10
# B7: B10x225-H (bispecific antibody, V domains shown)
# VL (c-MET arm): B6 VL (c-MET arm)
# VH (c-MET arm): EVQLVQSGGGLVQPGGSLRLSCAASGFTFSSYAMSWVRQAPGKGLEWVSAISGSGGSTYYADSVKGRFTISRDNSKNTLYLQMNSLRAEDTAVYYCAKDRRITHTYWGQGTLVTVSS
# VL (EGFR arm): B2 VL (EGFR arm) with N93E, T96N
# VH (EGFR arm): B2 VH (EGFR arm) with R53S, T100D
# notes: c-MET x EGFR SEED bispecific
# B8: B10x225-M (bispecific antibody, V domains shown)
# VL (c-MET arm): B6 VL (c-MET arm)
# VH (c-MET arm): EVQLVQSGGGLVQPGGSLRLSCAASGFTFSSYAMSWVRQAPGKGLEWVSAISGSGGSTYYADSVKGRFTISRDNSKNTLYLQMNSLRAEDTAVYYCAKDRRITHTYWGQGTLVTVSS
# VL (EGFR arm): B2 VL (EGFR arm) with N92Y
# VH (EGFR arm): B2 VH (EGFR arm) with R53S
# notes: c-MET x EGFR SEED bispecific
# B9: B10x425 (bispecific antibody, V domains shown)
# VL (c-MET arm): B6 VL (c-MET arm)
# VH (c-MET arm): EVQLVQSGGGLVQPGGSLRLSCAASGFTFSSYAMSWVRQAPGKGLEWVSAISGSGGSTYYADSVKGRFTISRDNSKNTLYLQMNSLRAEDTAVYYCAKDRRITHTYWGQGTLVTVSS
# VL (EGFR arm): B1 VL (EGFR arm)
# VH (EGFR arm): B1 VH (EGFR arm)
# notes: c-MET x EGFR SEED bispecific
# B10: oa 225-L (antibody, V domains shown)
# VH: B2 VH (EGFR arm)
# VL: B2 VL (EGFR arm)
# notes: one-armed (monovalent) anti-EGFR SEED molecule
# B11: oa225-M (antibody, V domains shown)
# VH: B2 VH (EGFR arm) with R53S
# VL: B2 VL (EGFR arm) with N92Y
# notes: as for B10
# B12: matuzumab (425) (antibody, V domains shown)
# VH: B1 VH (EGFR arm)
# VL: B1 VL (EGFR arm) with R107G
# Target: T1, c-MET and EGFR co-expressed on cells (human, UniProt P08581;P00533)
# T1 construct: endogenous receptor on the cell surface; not a complex: two separate receptors on the same cell; used as target only for bispecific c-MET x EGFR molecules, whose cell staining cannot be split between the two arms; also called cells that carry both receptors: NCI-H441, EBC-1, A431, MKN-45, A549, HepG2 (cell line under assay)
# Assay: flow cytometry, A549 cells (c-MET+ EGFR++)
row,MFI at 100 nM,Binder
1,328,B1
2,212,B2
3,264,B3
4,268,B4
5,383,B5
6,192,B6
7,454,B7
8,572,B8
9,270,B9

# Target: T2, EGFR (epidermal growth factor receptor) on A549 cells (human, UniProt P00533 25-1210)
# T2 construct: whole, on cells; Endogenous receptor of A549 cells; phosphorylation read out in cell lysates
# Assay: flow cytometry, A549 cells (c-MET+ EGFR++)
row,MFI at 100 nM,Binder
1,91,B10
2,138,B11

# Target: T3, c-MET on cells (human, UniProt P08581)
# T3 construct: endogenous receptor on the cell surface; for A549 cells m4 is used; also called HGFR; on NCI-H441, EBC-1, A431, MKN-45, SK-MEL2 or HepG2 cells (cell line under assay)
# Assay: flow cytometry, SK-MEL2 cells (c-MET+ EGFR-)
MFI at 100 nM,binding result,Binder
17,no binding (tested: 100 nM),B10
19,no binding (tested: 100 nM),B11
213,–,B1
188,–,B2
236,–,B3
132,–,B4
457,–,B5
23,–,B6
64,–,B7
53,–,B8
25,–,B9

# Target: T1, c-MET and EGFR co-expressed on cells
# Assay: flow cytometry, HepG2 cells (c-MET+ EGFR+)
row,MFI at 100 nM,Binder
1,348,B1
2,254,B2
3,330,B3
4,164,B4
5,793,B5
6,85,B6
7,100,B7
8,84,B8
9,101,B9

# Target: T4, EGFR on cells (human, UniProt P00533)
# T4 construct: endogenous receptor on the cell surface; for A549 cells m5 is used; also called on NCI-H441, EBC-1, A431, MKN-45, HepG2 or T47D cells (cell line under assay)
# Assay: flow cytometry, HepG2 cells (c-MET+ EGFR+)
row,MFI at 100 nM,Binder
1,22,B10
2,40,B11

# Target: T5, biotinylated recombinant human c-MET ECD (HGFR extracellular domain) (human, UniProt P08581 25-932, biotinylated (sites not given))
# T5 construct: extracellular domain; also called human c-MET ECD-His
# Assay: BLI (Octet), antibody on anti-human Fc biosensors, soluble c-MET ECD as analyte
Kd [nM],koff [s⁻¹],kon [M⁻¹ s⁻¹],Binder
0.21,0.00022,1.1e+06,B3
0.37,0.00015,400000,B5

# Target: T1, c-MET and EGFR co-expressed on cells
# Assay: flow cytometry, A431 cells (c-MET+ EGFR+++)
row,MFI at 100 nM,Binder
1,1430,B1
2,890,B2
3,1170,B3
4,1350,B4
5,1290,B5
6,947,B6
7,1980,B7
8,1480,B8
9,1120,B9

# Target: T4, EGFR on cells
# Assay: flow cytometry, A431 cells (c-MET+ EGFR+++)
row,MFI at 100 nM,Binder
1,1260,B10
2,1500,B11

# Target: T6, EGFR (soluble extracellular domain) (human, UniProt P00533)
# T6 construct: soluble extracellular domain; also called Human EGFR extracellular domain, R&D Systems 1095-ER
# Assay: BLI (Octet), antibody on anti-human Fc biosensors, soluble EGFR ECD as analyte
Kd [nM],koff [s⁻¹],kon [M⁻¹ s⁻¹],Binder
220,0.14,610000,B10
4.4,0.016,3.7e+06,B11
3.9,0.018,4.6e+06,B3
4.7,0.017,3.6e+06,B5
12,0.0078,640000,B12

# Target: T1, c-MET and EGFR co-expressed on cells
# Assay: flow cytometry, MKN-45 cells (c-MET+++ EGFR++)
row,MFI at 100 nM,Binder
1,1280,B1
2,1530,B2
3,1470,B3
4,1450,B4
5,1270,B5
6,1220,B6
7,1320,B7
8,1790,B8
9,1260,B9

# Target: T4, EGFR on cells
# Assay: flow cytometry, MKN-45 cells (c-MET+++ EGFR++)
row,MFI at 100 nM,Binder
1,83,B10
2,144,B11

# Target: T1, c-MET and EGFR co-expressed on cells
# Assay: flow cytometry, EBC-1 cells (c-MET+++ EGFR++)
row,MFI at 100 nM,Binder
1,1960,B1
2,2048,B2
3,1870,B3
4,1370,B4
5,2280,B5
6,434,B6
7,948,B7
8,671,B8
9,361,B9

# Target: T4, EGFR on cells
# Assay: flow cytometry, EBC-1 cells (c-MET+++ EGFR++)
row,MFI at 100 nM,Binder
1,137,B10
2,189,B11
